Laboratory results published in patent publication US11434299 (TENEOBIO, dated 2022).

Target: T1, human BCMA (B-Cell Maturation Antigen) on NCI-H929 cells (human, UniProt Q02223 1-184)
T1 construct: whole, on cells; Endogenous BCMA on NCI-H929 myeloma cells; also called TNFRSF17; H929 cells (BCMA+, lambda-)
T1 sequence (looked up): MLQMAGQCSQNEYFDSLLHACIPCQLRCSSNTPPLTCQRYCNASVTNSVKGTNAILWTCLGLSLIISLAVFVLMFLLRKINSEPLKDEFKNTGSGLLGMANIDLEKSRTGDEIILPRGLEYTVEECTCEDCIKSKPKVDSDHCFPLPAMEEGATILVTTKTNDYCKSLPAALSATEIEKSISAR
Test: flow cytometry, HEK supernatants on NCI-H929 cells (BCMA+)
Experimental: Supernatants of all antibodies were also tested by flow cytometry for binding to RPMI-8226 cells (BCMA+, lambda+) and H929 cells (BCMA+, lambda−). The samples were measured by flow cytometry using a Guava easyCyte 8HT instrument from EMD Millipore and analyzed using guavaSoft. Bound antibodies were detected with goat anti-human IgG F(ab')_2 conjugated to PE (Southern Biotech 2042-09). All antibodies were diluted in PBS with 1% BSA. Positive staining was determined by comparison to staining with a human IgG1 isotype control. The NCI-H929 and RPMI-8226 cell lines are human multiple myeloma lines expressing human BCMA, which were obtained from the American Type Culture Collection (ATCC) and cultured according to ATCC recommendations.

- binding result: binds
B1: SEQ ID NO 53 (antibody, V domains shown)
VH: EVQLLESGGGLVQPGGSLRLSCAASGFTFSNYAMNWVRQAPGKGLEWVSGIIGSGGSTYYADSVKGRFTISRDNSKNTLYLQMNSLRVEDTAVYYCVKDWNTTMITERGQGTLVTVSS
notes: UniAb: CH1 deleted, no light chain; HEK supernatant
